Source: patent US20070135335

Test system: Beacon (recombinant, expressed as GST-Beacon in E. coli, GST tag cleaved off with thrombin)

GST-CLK1 (recombinant human CLK1 fused to glutathione S-transferase, pGEX4T-1), sequence (chain, as listed by the source): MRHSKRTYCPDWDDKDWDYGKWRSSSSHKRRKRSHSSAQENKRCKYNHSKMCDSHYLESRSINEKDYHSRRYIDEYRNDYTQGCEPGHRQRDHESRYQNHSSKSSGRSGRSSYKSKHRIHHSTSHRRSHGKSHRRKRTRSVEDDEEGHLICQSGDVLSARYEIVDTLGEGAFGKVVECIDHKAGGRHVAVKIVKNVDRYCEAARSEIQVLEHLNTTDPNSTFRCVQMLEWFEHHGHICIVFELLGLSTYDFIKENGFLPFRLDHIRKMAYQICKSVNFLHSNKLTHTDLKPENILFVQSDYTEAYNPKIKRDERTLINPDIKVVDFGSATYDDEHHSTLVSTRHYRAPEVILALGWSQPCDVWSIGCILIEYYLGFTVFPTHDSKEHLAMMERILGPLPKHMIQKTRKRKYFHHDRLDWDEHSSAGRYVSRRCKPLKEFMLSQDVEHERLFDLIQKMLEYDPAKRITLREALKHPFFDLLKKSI
GST-CLK2 (recombinant human CLK2 fused to glutathione S-transferase, pGEX4T-1), sequence (chain, as listed by the source): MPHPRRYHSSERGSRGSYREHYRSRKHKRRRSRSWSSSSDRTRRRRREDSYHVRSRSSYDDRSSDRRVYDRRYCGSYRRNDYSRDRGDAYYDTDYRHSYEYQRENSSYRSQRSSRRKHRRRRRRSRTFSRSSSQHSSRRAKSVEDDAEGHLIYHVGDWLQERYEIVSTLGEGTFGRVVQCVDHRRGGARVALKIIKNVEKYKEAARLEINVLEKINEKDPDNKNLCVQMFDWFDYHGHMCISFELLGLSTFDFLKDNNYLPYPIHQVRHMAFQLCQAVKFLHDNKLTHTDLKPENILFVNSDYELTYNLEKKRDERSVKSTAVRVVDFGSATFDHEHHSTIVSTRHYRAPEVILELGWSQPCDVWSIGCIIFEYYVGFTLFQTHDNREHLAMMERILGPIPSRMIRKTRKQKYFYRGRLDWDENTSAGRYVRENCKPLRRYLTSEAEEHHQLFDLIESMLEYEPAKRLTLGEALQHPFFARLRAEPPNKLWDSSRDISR
GST-CLK4 (recombinant human CLK4 fused to glutathione S-transferase, pGEX4T-1), sequence (chain, as listed by the source): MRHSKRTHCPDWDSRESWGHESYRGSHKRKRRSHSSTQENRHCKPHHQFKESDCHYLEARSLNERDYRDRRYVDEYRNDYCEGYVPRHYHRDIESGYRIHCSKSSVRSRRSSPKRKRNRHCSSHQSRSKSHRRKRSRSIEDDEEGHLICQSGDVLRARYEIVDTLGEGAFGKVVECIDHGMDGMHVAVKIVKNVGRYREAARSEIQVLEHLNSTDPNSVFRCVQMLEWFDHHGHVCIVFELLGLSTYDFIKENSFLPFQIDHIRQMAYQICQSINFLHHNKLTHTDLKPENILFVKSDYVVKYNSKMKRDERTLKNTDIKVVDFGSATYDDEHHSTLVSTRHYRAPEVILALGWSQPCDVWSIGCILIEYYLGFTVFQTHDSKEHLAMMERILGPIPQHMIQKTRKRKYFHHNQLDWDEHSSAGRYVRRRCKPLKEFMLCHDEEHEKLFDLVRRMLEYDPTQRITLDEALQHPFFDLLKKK

Substance | phosphorylation of Beacon in kinase assay with [gamma-32P]-ATP
GST-CLK1 (recombinant human CLK1 fused to glutathione S-transferase, pGEX4T-1) | Beacon was not phosphorylated by any of the CLKs
GST-CLK2 (recombinant human CLK2 fused to glutathione S-transferase, pGEX4T-1) | Beacon was not phosphorylated by any of the CLKs
GST-CLK4 (recombinant human CLK4 fused to glutathione S-transferase, pGEX4T-1) | Beacon was not phosphorylated by any of the CLKs
